Experimental data taken from patent US20180036405A1 (Regeneron, published 2018).

Experiments:
[1] = biological target: T1, EGFR on A431 epidermoid carcinoma cells (human, UniProt P00533 25-1210); experiment: cell-based or functional assay
[2] = biological target: T1, EGFR on A431 epidermoid carcinoma cells; experiment: cell-based or functional assay; remark: listed apart in the source
[3] = biological target: T2, human dimeric EGFR (EGFR.mFc) (human); experiment: SPR 37C, mAb captured by anti-human Fc, EGFR.mFc analyte
T2 construct: Soluble dimeric EGFR construct
Protocol: (§1) Different concentrations of human monomeric (EGFR.mmh; SEQ ID NO:386) and dimeric (EGFR.mFc; SEQ ID NO:387) proteins were injected over the anti-EGFR monoclonal antibody captured surface at a flow rate of 50 μI/min. Antibody-antigen association was monitored for 4-5 minutes while dissociation of antigen from the captured monoclonal antibody surface was monitored for 10 min. Kinetic association (kₐ) and dissociation (kd) rate constants were determined by processing and fitting the data to a 1:1 binding model using Scrubber 2.0 curve fitting software.

[4] = biological target: T3, human monomeric EGFR (EGFR.mmh) (human, UniProt P00533 25-647); experiment: SPR 37C, mAb captured by anti-human Fc, EGFR.mmh analyte
T3 construct: Soluble monomeric EGFR construct
Protocol: as §1

B1: H1H089N (antibody, human IgG1, V domains shown)
VH: EVQLVESGGGLVQPGRSLRLSCAASGFTFDDYAMHWVRQAPGKGLEWVSGINWNSDKIAYADSVKGRFTISRDNAENSLFLQMNSLRPEDTALYYCVKRGDFWTDYYDYWGQGTLVTVSS
VL: DIVMTQSPLSLPVTPGEPASISCRSSQSLLHSNGHNYLDWYLQKPGQSPHLLIYLVSNRASGVPDRFSGSGSGTDFTLKISRVEAEDVGVYYCIQALQTPWTFGQGTKVEIK
notes: Tested in human IgG1 Fc format (H1H); also called H1M089N
IC50 of A431 Proliferation [1]: 2.3e-09 Molar
ADCC EC50 [2]: 5.83e-12 Molar
Maximum Cell Killing (%) [2]: 53%
Kd [3]: 0.0301 nM
koff [3]: 4.49e-05 s⁻¹
kon [3]: 1.49e+06 M⁻¹ s⁻¹
t1/2 [3]: 4.28 h
Kd [4]: 21.8 nM
koff [4]: 0.00683 s⁻¹
kon [4]: 313000 M⁻¹ s⁻¹
t1/2 [4]: 0.0333 h

B2: H1H142P (antibody, human IgG1, V domains shown)
VH: QVQLQESGPGLVKPSQTLSLTCTVSGGSISSGDYYWNWIRQYPGKGLELIGYIYYSGITYYNPSLKSRLTISLDTSKNQFSLKLSSVTAADTAVYYCARDRVELRAFDIWGQGTMVTVSS
VL: DIQMTQSPSSLSASIGDRITISCQASQDINNYLNWYQQKPGKAPKLLIYDASNLETGIPSRFSGSGSGTDFTFTISGLQPEDIATYYCQHYDSLPLTFGQGTRLEIK
notes: Human IgG1 Fc (H1H)
IC50 of A431 Proliferation [1]: 5.47e-10 Molar
ADCC EC50 [2]: 1.19e-12 Molar
Maximum Cell Killing (%) [2]: 34%
Kd [3]: 0.0332 nM
koff [3]: 1.2e-05 s⁻¹
kon [3]: 361000 M⁻¹ s⁻¹
t1/2 [3]: 16.1 h
Kd [4]: 4.35 nM
koff [4]: 0.000689 s⁻¹
kon [4]: 158000 M⁻¹ s⁻¹
t1/2 [4]: 0.283 h

B3: H1H143P (antibody, human IgG1, V domains shown)
VH: QVQLQESGPGLVMPSQTLSLTCTVSGGSINSGDYYWNWIRQHPGKGLEWIGYIYYSEISYHNPSLKSRVTTSIDTSTNQFSLKLSSVTAADTAVYYCARDRVELRAFDIWGQGTMVTVSS
VL: DIQMTQSPSSLSASVGDRVTITCQASQDISNYLNWYQQKPGKAPKLLIYDASNLETGVPSRFSGSGSGTDFTFTISSLQPEDIATYYCQHYDSLPLTFGQGTRLEIK
notes: Human IgG1 Fc (H1H)
IC50 of A431 Proliferation [1]: 9.97e-11 Molar
Maximum Cell Killing (%) [2]: 13%
Kd [3]: 0.0354 nM
koff [3]: 1.35e-05 s⁻¹
kon [3]: 381000 M⁻¹ s⁻¹
t1/2 [3]: 14.3 h
Kd [4]: 5.71 nM
koff [4]: 0.000727 s⁻¹
kon [4]: 127000 M⁻¹ s⁻¹
t1/2 [4]: 0.267 h

B4: H1H141P (antibody, human IgG1, V domains shown)
VH: QVQLQESGPGLVKPSQTLSLTCTVSGGSISSGDYYWNWIRQYPGKGLELIGYIYYSGITYYNPSLKSRLTISLDTSKNQFSLKLSSVTAADTAVYYCARDRVELRAFDIWGQGTMVTVSS
VL: DIQMTQSPSSLSASVGDRVTITCQASQDISNYLNWYQQKPGKAPKLLINDASNLETGVPSRFSGSGSGTDFTFTISSLQPEDIATYYCQHYDSLPLTFGQGTRLEIK
notes: Human IgG1 Fc (H1H)
IC50 of A431 Proliferation [1]: 1.41e-10 Molar
ADCC EC50 [2]: 2.78e-12 Molar
Maximum Cell Killing (%) [2]: 41%
Kd [3]: 0.00831 nM
koff [3]: 7.51e-06 s⁻¹
kon [3]: 903000 M⁻¹ s⁻¹
t1/2 [3]: 25.6 h
Kd [4]: 1.02 nM
koff [4]: 0.000405 s⁻¹
kon [4]: 396000 M⁻¹ s⁻¹
t1/2 [4]: 0.483 h

B5: H1H144P (antibody, human IgG1, V domains shown)
VH: QVQLQESGPGLVMPSQTLSLTCTVSGGSINSGDYYWNWIRQHPGKGLEWIGYIYYSEISYHNPSLKSRVTTSIDTSTNQFSLKLSSVTAADTAVYYCARDRVELRAFDIWGQGTMVTVSS
VL: DIQMTQSPSSLSASVGDRVTITCQASQDISNYLNWYQQKPGKAPKLLIYDASNLETGVPSRFSGSGSGTDFTFTISSLQPEDIATYYCQHYDSLPLTFGQGTRLEIK
notes: Human IgG1 Fc (H1H)
IC50 of A431 Proliferation [1]: 1.39e-11 Molar
ADCC EC50 [2]: 4.57e-11 Molar
Maximum Cell Killing (%) [2]: 43%
Kd [3]: 0.0217 nM
koff [3]: 1.94e-05 s⁻¹
kon [3]: 894000 M⁻¹ s⁻¹
t1/2 [3]: 9.93 h
Kd [4]: 5.25 nM
koff [4]: 0.000967 s⁻¹
kon [4]: 184000 M⁻¹ s⁻¹
t1/2 [4]: 0.2 h

B6: H1H147P (antibody, human IgG1, V domains shown)
VH: EVQLVESGPGLVQPSQTLSLTCTVSGGSINSGDFYWSWIRQHPGKGLEWIGHIYYSGITYYSPSLKSRLTISVDTSKNQFSLKLSSVTAADTAVYYCARKRVTGEVDYWGQGTLVTVSS
VL: DIQMTQSPSSLSASVGDRITITCQANQDINNYLNWYQQKPGKAPKLLISDASNLETGVPSRFSGSGSGTDFTFTISSLQPEDIATYYCQQYDNLPPTFGQGTRLEIKR
notes: Human IgG1 Fc (H1H)
IC50 of A431 Proliferation [1]: 9.77e-11 Molar
Maximum Cell Killing (%) [2]: 13%
Kd [3]: 0.0664 nM
koff [3]: 1.26e-05 s⁻¹
kon [3]: 190000 M⁻¹ s⁻¹
t1/2 [3]: 15.2 h
Kd [4]: 5.76 nM
koff [4]: 0.000376 s⁻¹
kon [4]: 65400 M⁻¹ s⁻¹
t1/2 [4]: 0.517 h

B7: H1H102N (antibody, human IgG1, V domains shown)
VH: QVQLQESGPGLVQPSQTLSLTCTVSGGSVSSGDYYWSWIRQHPGKGLEWIGHIYYSGITYYNPSLESRVTITLDTSKNQFSLNLRSVTAADTAVHYCARTAIIGTMDNWGRGTLVTVSS
VL: EIVMTQSPATLSVSPGERATLSCRASQSVSSNLAWYQQKPGQAPRLLIYDASTRATGFPARFSGSGSGTEFTLTISSLQSEDFAVYYCQQYNTWWTFGQGTKVEIK
notes: Tested in human IgG1 Fc format (H1H); also called H1M102N
IC50 of A431 Proliferation [1]: 2.88e-10 Molar
ADCC EC50 [2]: 4.39e-13 Molar
Maximum Cell Killing (%) [2]: 48%
Kd [3]: 0.0651 nM
koff [3]: 5.62e-05 s⁻¹
kon [3]: 863000 M⁻¹ s⁻¹
t1/2 [3]: 3.43 h
Kd [4]: 5.67 nM
koff [4]: 0.000943 s⁻¹
kon [4]: 166000 M⁻¹ s⁻¹
t1/2 [4]: 0.2 h

B8: H1H103N (antibody, human IgG1, V domains shown)
VH: EVQLVESGGGLVQPGGSLRLSCAASGFTFSSYDMHWVRQTTGKGLEWVSGIGTAGDTYYPGSVKGRFTISREDAKNSLYLQMNSLRAGDTAVYYCARVGYDWNFVAFDYWGQGTLVTVSS
VL: DIVMTQSPLSLPVTPGEPASISCRSSQSLLHSNGYNYLDWYLQKPGQSPQLLIHLVSIRASGVPDRFSGSGSGTDFTLKISRVEAEDVGIYYCMQALQTPWTFGQGTKVEIK
notes: Tested in human IgG1 Fc format (H1H); also called H1M103N
IC50 of A431 Proliferation [1]: 3.89e-09 Molar
ADCC EC50 [2]: 7.25e-13 Molar
Maximum Cell Killing (%) [2]: 17%
Kd [3]: 0.109 nM
koff [3]: 4.19e-05 s⁻¹
kon [3]: 383000 M⁻¹ s⁻¹
t1/2 [3]: 4.6 h
Kd [4]: 13.9 nM
koff [4]: 0.00139 s⁻¹
kon [4]: 100000 M⁻¹ s⁻¹
t1/2 [4]: 0.133 h

B9: H1H116N (antibody, human IgG1, V domains shown)
VH: QVQLQESGPGLVKPSQTLSLTCTVSGGSVSSGDYYWSWIRQHPGKGLDWIGHIYYSGSTYYNPSLKSRVTISLDTSKNQFSLKLNSVTAADTAVYYCARTAITGTMDYWGQGTLVTVSS
VL: EIVMTQSPATLSVSAGERATLSCRASQSVSSNLAWFQQKPGQAPRLLIYDASTRATGIPARFSGSGSGTEFTLIISSLQSEDFALYYCQQYNSWWTFGQGTKVEIK
notes: Tested in human IgG1 Fc format (H1H); also called H1M116N
IC50 of A431 Proliferation [1]: 2.24e-10 Molar
ADCC EC50 [2]: 2.51e-13 Molar
Maximum Cell Killing (%) [2]: 29%
Kd [3]: 0.0203 nM
koff [3]: 3.16e-05 s⁻¹
kon [3]: 1.55e+06 M⁻¹ s⁻¹
t1/2 [3]: 6.1 h
Kd [4]: 5.27 nM
koff [4]: 0.00284 s⁻¹
kon [4]: 539000 M⁻¹ s⁻¹
t1/2 [4]: 0.0667 h

B10: H1H134P (antibody, human IgG1, V domains shown)
VH: EVQLVESGGGLVQPGGSLRLSCAASGFTFDDFAIHWVRQTPGRGLEWVSGLSWNSAYIAYADSVKGRFTISRDNAKDSLYLQMNSLRPEDTALYYCVKDTDIHLWFLFDFWGQGTLVTVSS
VL: not shown
notes: Human IgG1 Fc (H1H)
IC50 of A431 Proliferation [1]: 1.84e-09 Molar
ADCC EC50 [2]: 4.61e-11 Molar
Maximum Cell Killing (%) [2]: 33%
Kd [3]: 0.00799 nM
koff [3]: 2.47e-05 s⁻¹
kon [3]: 3.09e+06 M⁻¹ s⁻¹
t1/2 [3]: 7.8 h
Kd [4]: 0.848 nM
koff [4]: 0.000789 s⁻¹
kon [4]: 930000 M⁻¹ s⁻¹
t1/2 [4]: 0.25 h
